Assay results from the supplement of paper PMC9170038.

Test system: MS2 coat protein
Test: apparent KD of MS2 coat protein; designed switch direction (-1 OFF switch, 1 ON switch): -1; higher = weaker reporter binding
In short: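 Designed RNA switches with common flanks were transcribed on Illumina chips by stalled E. coli RNA polymerase and titrated with SNAP-549-labelled MS2 coat protein, from 0.7 or 1.5 nM doubling to 3 µM, in Tris-HCl pH 7.5 buffer with KCl, MgCl2, BSA, DTT, tRNA and Tween-20. Steps lasted 0.8–1.5 h (lowest) to 10–20 min (highest). Titrations ran without input, with 200 uM small-molecule ligand, or with an oligonucleotide input. Normalised cluster fluorescence was curve-fitted, and apparent KD is the per-design median over clusters.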

[1] = input ligand: microRNA oligo, concentration not stated
[2] = Eterna round: R95, input ligand: microRNA oligo, concentration not stated
[3] = Eterna round: R95, input ligand: FMN 200 uM
[4] = Eterna round: R95, input ligand: none

Sequence | apparent KD of MS2 coat protein (input ligand: FMN 200 uM) [nM] | apparent KD of MS2 coat protein [1] [nM] | apparent KD of MS2 coat protein (input ligand: none) [nM] | apparent KD of MS2 coat protein [2] [nM] | apparent KD of MS2 coat protein [3] [nM] | apparent KD of MS2 coat protein [4] [nM]
UCACGGGACUGAGGAUAUACAUGAAUUAUUUUUGUAGAAGGCAGAAUGUUAGUUUAUUCACUAUACAUGAGGAUCACCCAUGUU [JR_ExcNG1_Sub021] (Eterna round: R96, puzzle: Exclusion NG 1) | 21.5 | 26.7 | 32.9 | – | – | –
CUGCUCCGUGUAGGAUAUGCAUGCAACCAAUAUGCAGAAGGACAUGAGGAUCACCCAUGUAUGUUAUUAUCACGUGAAGCGUCC [Design 22] (Eterna round: R96, puzzle: Exclusion NG 1) | 27.1 | 19.5 | 29.8 | – | – | –
GAGGAACAUGAGGAUCACCCAUGUGAGGAUAUGCAUAGUGAGGUAGUAGACGUUGAAUGCAGAAGGUACACUGA [JR_Exclu1_Sub078] (puzzle: Exclusion 1) | – | – | – | 35.7 | – | –
CACGUGUCAGGAUAUCCCGCGCGCGCUUCACCGAGAGUGCGGGAGAAGGGACAUGAGGAUCACCCAUGUCCUUC [Eternabot (L1) Solution 93] (Eterna round: R97, puzzle: Exclusion 4) | 12.8 | – | 16.2 | – | – | –
CCAAAGCGAGGAUAUACUUGCGACCCAAGCGUGGAAGACAUACUUGAGGAUCACCCAAGUAGAAGGCGCGCCAA [Dibixela] (Eterna round: R97, puzzle: Exclusion 2) | 145 | – | 92 | – | – | –
GGUCGAAAACAGCUCCGCGCUGCCCUCGACCGCUCAUUUACAUGAGGAUCACCCAUGUUUUUUGCUUGUCUUGUUUC [Esrionus] (puzzle: Sensor v3, turn-off variant 2) | – | – | – | 80.1 | 18.3 | 22.9
AACCUGAGGCUUUGCUUUAGGUGUACAUGAGGAUCACCCAUGUAGGAUAUGGUAGGCUUUGCUUACCAGAAGGACAUUAUGAUU [JL ENG3 1.18] (Eterna round: R96, puzzle: Exclusion NG 3) | 119 | 33.4 | 37.1 | – | – | –
CCGCUGUCAGGAUAUCGUGCAUACAACGAAAGUUCUAUGUGCGAGAAGGGACAUGAGGAUCACCCAUGUUUGCG [Omei Ex4 A20] (Eterna round: R97, puzzle: Exclusion 4) | 41.3 | – | 28.2 | – | – | –
CGUGACUCAGGAUAUCUAUAGUGUCACAUGAGGAUCACCCAUGUCCAGCGAAAGCUGGAGGGAGAAGGGAGUCACG [Fiskers Ex 5 - 43] (Eterna round: R96, puzzle: Exclusion 5) | 43.1 | 71.5 | 87.7 | – | – | –
GGAUAAGGCGAGGAUAUCCAGAAACCCGACAAAGGAGAAGGCGCAACAUGAGGAUCACCCAUGUGGGUGCAUGU [Xeaormara] (puzzle: Exclusion 6) | – | – | – | 254 | 1080 | 280
AACAAUACUUACAUAAUAAGGCUUUUCAGGUCGGGUACCACAUGAGGAUCACCCAUGUAGCAGCCUAGGGAAUGAUA [JR_Sensorv2_tov2_Sub1233] (Eterna round: R96, puzzle: Sensor v2, turn-off variant 2) | 49.2 | 36.4 | 46.1 | – | – | –
GUAAACGCAGAGGAUAUUUCAGAUCAAAGCUGCAAAGAAGGCUGCACAUGAGGAUCACCCAUGUGGUCUUCAAG [Mat - Exclusion 6 - JL Mod - D10] (Eterna round: R97, puzzle: Exclusion 6) | 297 | – | 24.7 | – | – | –
ACAUGAGGAUCACCCAUGUGACCACAAUGGCUGAUGUAAAGACAGGAUAUGUGUGAAUAUCUAACACAGAAGGGUCUUGACUGG [Deportation 57 - Jieux - Exclusion NG 3] (Eterna round: R96, puzzle: Exclusion NG 3) | 53 | 47.1 | 47.8 | – | – | –
CUGUUCCGUGUAGGAUAUGCAUAUUCCCAUUAUGCAGAAGGACAUGAGGAUCACCCAUGUAUGUUAUUAUCAUGUGUUACAUGC [Design 8] (Eterna round: R96, puzzle: Exclusion NG 1) | 635 | 31.3 | 36.4 | – | – | –
AACAAACAUGAGGAUCACCCAUGUGAGGAUAUGCAACAAAACAAAACAAAACAAAACAGCAGAAGGCACACAAC [A-G Solution By Eric] (puzzle: Exclusion 1) | – | – | – | 19.2 | 17.2 | 14.6
CCGGAAAGGAAGGAUAUGCUAGACGAGAGUCUAGCAGAAGGUCCUACAUGAGGAUCACCCAUGUGGUCCUCCGG [Mat - Exclusion 6 - Eli Mod - D34] (Eterna round: R97, puzzle: Exclusion 6) | 252 | – | 1270 | – | – | –
GCUUGUCUUUAGGAUAUCGUGAGGCCCUUCAUACGAGAAGGAAAGACAUGAGGAUCACCCAUGUCGGGUAUCAC [Eternabot (L1) Solution 28] (Eterna round: R97, puzzle: Exclusion 6) | 51.8 | – | 20.8 | – | – | –

Sequence | apparent KD of MS2 coat protein (input ligand: FMN 200 uM) [nM] | apparent KD of MS2 coat protein [1] [nM] | apparent KD of MS2 coat protein (input ligand: none) [nM] | apparent KD of MS2 coat protein [2] [nM] | apparent KD of MS2 coat protein [3] [nM] | apparent KD of MS2 coat protein [4] [nM]
ACAUGAGGAUCACCCAUGUGAAAGAAAUGGCUGACUUUGAGCUAGGAUAUUUGUGCAUAUCAAACGAAGAAGGAGCAUUACUGG [Deportation 100 - Jieux - Exclusion NG 3] (Eterna round: R96, puzzle: Exclusion NG 3) | – | 16.4 | – | – | – | –
UUUAAUUUUUUUUUUUUACAAGCUUUUUGCUCGUCUUAUACAUGAGGAUCACCCAUGUGGAUGGAGGAUAAAUUAUC [JMF 31] (puzzle: Sensor v3, turn-off variant 2) | – | – | – | 18.7 | 20.1 | 16.2
GACCUCCCUGUAAGGAUAUCCAUGCAUCAAAGCAUGGAGAAGGUACAUGAGGAUCACCCAUGUCACCCGCGUUA (Eterna round: R97, puzzle: Brourd's mod of Exclusion 4) | 20.7 | – | 15 | – | – | –
UUAAAUAGUGUGAGGAUAUGCUGGUCCUUGGAUCAGCAGAAGGCACAUGAGGAUCACCCAUGUAGUUAAUUUUA [Mat - Exclusion 4 - JL Mod - D22] (puzzle: Brourd's mod of Exclusion 4) | – | – | – | 37.4 | – | –
CCGACCCGAGGAUAUUGUACUGCUGACAUGAGGAUCACCCAUGUAUGUUAACUCGGCCGACGAGAAGGCGGCGACA [BotMod 3 - Jieux - Exclusion 5] (Eterna round: R97, puzzle: Exclusion 5) | 18.4 | – | 22.1 | – | – | –
GGAUCGAAUGUGAGGAUAUGCUGGUCCUUGGAUCAGCAGAAGGCACAUGAGGAUCACCCAUGUCCAAACGGUCC [Eli bmx4 4.44] (Eterna round: R97, puzzle: Brourd's mod of Exclusion 4) | 352 | – | 525 | – | – | –
UUUGUUUAGGUAGGAUAUACUUUUAAUUUCUCUUUCCUUACAUGAGGAUCACCCAUGUUUACAUUGUAGAAGGACCACUUUGUU [JR_ExcNG2_Sub052] (Eterna round: R96, puzzle: Exclusion NG 2) | – | 16.5 | – | – | – | –
CGGCAAUCCAAGGAUAUGCUAGACGAAAGUCUAGCAGAAGGUGGAACAUGAGGAUCACCCAUGUGUCCAAGCCG [Eli x6 4.04] (Eterna round: R97, puzzle: Exclusion 6) | 21.1 | – | 15.3 | – | – | –
GUUAUGUCAGGAUAUGCUAAUGAUGAGUGAUCAGACAUGAUGUAGAAGGGACAUGAGGAUCACCCAUGUACUAA [EX4 #9] (Eterna round: R97, puzzle: Exclusion 4) | 30.6 | – | 29 | – | – | –
GGCAGACAUGAGGAUCACCCAUGUCAGGAUAUGUGGCGAUCGUCGAAAGACGAUAGCCACAGAAGGGACAUGCC [Eli x1 4.20] (Eterna round: R97, puzzle: Exclusion 1) | 40.7 | – | 22.4 | – | – | –
AAUAAUGAGAAGGAUAUCACUAGCGAUAGCUAGUGAGAAGGUCUCACAUGAGGAUCACCCAUGUGUUCCAAUAA [Mod1 Ex6/6-A4 by Brourd] (Eterna round: R97, puzzle: Exclusion 6) | 417 | – | 221 | – | – | –
CAAACAAAGUCAGGAUAUGUCAAAUUUGUUACGACAGAAGGGACGGGACCGACACUCACAGACAUGAGGAUCACCCAUGUAAAA [Areris] (Eterna round: R96, puzzle: Exclusion NG 1) | 37.8 | 19 | 33.5 | – | – | –
GGUUGGCGAGGAUAUACAUGAGGAUCACCCAUGUGAGAGAUACUAGUGAGGUCGAUUGGUAGAAGGCGCUGACG [JL-ex3-2.02 salish99 mod] (puzzle: Exclusion 3) | – | – | – | 95.5 | 97.8 | 135
AUUUAGUGAGGAUAUGUGGCUUCGAUCGUGAGAUCGAGGCUACAGAAGGCACAUGAGGAUCACCCAUGUUCCUA [salish99_ex4_r4_115] (Eterna round: R97, puzzle: Exclusion 4) | 86.3 | – | 21.4 | – | – | –
GCACGGAUGGUAGGAUAUCUGUGCGAUUAGCUCAGAGAAGGACCACAUGAGGAUCACCCAUGUACCUCAAUUAGCUUUCCGUGC [Eli exng1 - 020] (Eterna round: R96, puzzle: Exclusion NG 1) | 40.7 | 11 | 15.2 | – | – | –
UUUAAUUUUUUUUUUUUACAAGCUUUUUGCUCGUCUUAUACAUGAGGAUCACCCAUGUAAAUGGAAGGUAAAUUAUC [JMF 67] (puzzle: Sensor v3, turn-off variant 2) | – | – | – | 17.3 | 15.5 | 13.5
